Results as given in publication PMC6441084.

Target: microtubules (MTs) polymerised from purified tubulin (Cytoskeleton, # T240) (UniProt P02550)

Diaph2 mutant lacking the FH2-domain (ΔFH2-Diaph2), GST-fusion protein (from UniProt O60879 1-1101) (natural protein)
MT-polymerization (turbidity at 340 nm, no taxol; 2 µM tubulin, 0.2 µM Diaph2 protein), fold against the control: 6 fold
